Data reported in patent publication US20190309094A1.
Values belong to the substance of their own block, whether it stands above or below them.

Tests used:
[1] = molecular target: hCD3εγ chains (human) (UniProt P07766); assay: ELISA on hCD3εγ chains, curve fit
[2] = molecular target: hCD3εγ chains (human) (UniProt P07766); assay: ELISA on hCD3εγ chains, curve fit (unit from the axis)
[3] = molecular target: CD3 on Jurkat luciferase reporter cells (Homo sapiens (Human)) (UniProt P07766); assay: flow cytometry on Jurkat_NFAT_Luc2P cells, control staining in all three panels
[4] = molecular target: CD3 on Jurkat luciferase reporter cells (Homo sapiens (Human)) (UniProt P07766); assay: flow cytometry on Jurkat_NFAT_Luc2P cells, PE-A; histogram shifted to about 10^4
[5] = molecular target: CD3 on Jurkat luciferase reporter cells (Homo sapiens (Human)) (UniProt P07766); assay: flow cytometry on Jurkat_NFAT_Luc2P cells, FITC-A; histogram shifted to between 10^3 and 10^4

Chain of UCHT1 (antibody) (V domain): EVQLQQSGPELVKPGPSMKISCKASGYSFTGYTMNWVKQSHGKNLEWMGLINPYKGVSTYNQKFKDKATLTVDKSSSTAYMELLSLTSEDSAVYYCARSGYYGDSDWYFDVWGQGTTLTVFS
Chain of UCHT1 (antibody) (VL): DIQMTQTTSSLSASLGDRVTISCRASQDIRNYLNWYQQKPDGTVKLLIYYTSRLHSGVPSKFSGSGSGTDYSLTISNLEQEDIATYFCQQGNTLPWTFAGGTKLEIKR

Bmax [1]: 1.52 OD 450 nm
Kd [2]: 0.0333 µM
Substance: UCHT1 (antibody)

Fold (fold (reference)) [3]: 1
Substance: hIgG (antibody)

Fold (fold over hIgG) [4]: 58
Substance: Commercial CD3e(HiT3a) (antibody)

Fold (fold over hIgG) [5]: 45
Substance: mOKT3 (antibody)
